Publication PMC4269474 (Cell reports, 2014)

Target: the molecule itself
Assay: negative-stain EM single particle reconstruction

B1: Pyrococcus furiosus Cmr4 (natural protein)
chain: KAYLVGLYTLTPTHPGSGTELGVVDQPIQRERHTGFPVIWGQSLKGVLRSYLKLVEKVDEEKINKIFGPPTEKAHEQAGLISVGDAKILFFPVRSLKGVYAYVTSPLVLNRFKRDLELAGVKNFQTEIPELTDTAIASEEITVDNKVILEEFAILIQKDDKGILESVVKAIEQAFGNEMAEKIKGRIAIIPDDVFRDLVELSTEIVARIRINAETGTVETGGLWYEEYIPSDTLFYSLILVTPRAKDNDMALIKEVLGKINGKYLQIGGNETVGKGFVKVTLKEVTNNGGTHAK
- stoichiometry N: 4
